In patent publication US6207389A, “Methods of controlling T lymphocyte mediated immune responses” (HRC Research and Development Limited Partnership, priority 1995, dated 2001):

What was measured:
[1] = system: PBMC from children with recent onset diabetes; experiment: T cell proliferation assay with BSA and rec-p69, patients (Example 3); format: cell-based, human; details: 1 μg antigen
Experimental: (§1) Cultures containing 5×10^4 cells were incubated for 7 days at 37° C. in serum-free HL-1 medium (Ventrex, Portland, Me.) containing 1 μg antigen per well for test samples.
(§2) Control cultures were treated with 1 μg human, chick or horse albumin or an equivalent volume of control recombinant antigen prepared from lysates of E. coli carrying wild type plasmid.
(§3) After an overnight pulse of 1 μci ^3 H thymidine, cultures were harvested and submitted to liquid scintillation counting. Proliferation was expressed as cpm ^3 HTdR×10^-3.
(§4) A parallel set of cell cultures was incubated with the same test antigens or control agents in the presence of 10 U human IL2.

[2] = system: PBMC from healthy subjects; experiment: T cell proliferation assay with BSA and rec-p69, healthy subjects (Example 3); format: cell-based, human; details: with or without IL2
Experimental: as §1, §2, §3, §4

[3] = system: NOD mice lymph node cells; experiment: Immunization and T cell proliferation assay, NOD mice (Example 11); format: in vivo, mouse; details: 50 μg sc in complete Freund's adjuvant, recall with 1 μg antigen in vitro
Experimental: (§5) Recombinant truncated p69 was prepared by expression of a portion of the cDNA of IS4. The cDNA was cut a few nucleotides downstream of the 3' terminal of exon 3 and was subcloned into the PET™ expression system according to the manufacturer's recommendations (Novagen Inc., Madison, Wis.). The truncated protein contains 100 amino acids and is essentially identical with the murine molecule.
(§6) Antigens were injected subcutaneously in complete Freunds' adjuvant, and local lymph nodes and blood samples were collected 10 days later. Triplicate cultures of 2×10^5 lymph node cells were incubated for 5 days in serum-free HGM-af Medium™ (Promo Cell, Heidelberg, Germany) in the presence of 1 μg of protein or synthetic peptide as recall antigen. Six hours before harvesting, 1 μCi ^3 H-thymidine (6.7 Ci/mmol) was added to the wells, and isotope incorporation was analysed by liquid scintillation counting. Values are expressed as mean counts per minute ± standard deviation (mean cpm ± SD).
(§7) Young male NOD mice (H2^G7, IE^-/-) received a single immunization with truncated p69 (as encoded by IS4 cDNA) in complete adjuvant, and antibody and T cell proliferative responses were measured 8-10 days later. MHC disparate C57/B6 (H2^b, IE^-/-) and SJL (H2^s, IE^-/-) mice served as non-diabetes prone controls (FIG. 31).

[4] = system: C57/B6 and SJL mice lymph node cells; experiment: Immunization and T cell proliferation assay, non-diabetes prone control mice (Example 11); format: in vivo, mouse; details: 50 μg sc in complete Freund's adjuvant
Experimental: as §5, §6, §7

[5] = system: NOD mice; experiment: Serum antibodies to BSA and p69 by fluoroimmunoassay, NOD mice (Example 11); format: in vivo, mouse; details: 50 μg sc in complete Freund's adjuvant
Experimental: (§8) Male non-obese diabetic mice (NOD, 6-7 weeks old) were immunized with 50 μg BSA, ABBOS-short peptide ([…]), recombinant truncated p69 or p69 T cell epitope peptide `Tep69` ([…]) (10). Recombinant truncated p69 was prepared by expression of a portion of the cDNA of IS4. The cDNA was cut a few nucleotides downstream of the 3' terminal of exon 3 and was subcloned into the PET™ expression system according to the manufacturer's recommendations (Novagen Inc., Madison, Wis.).
(§9) Antigens were injected subcutaneously in complete Freunds' adjuvant, and local lymph nodes and blood samples were collected 10 days later. […] Six hours before harvesting, 1 μCi ^3 H-thymidine (6.7 Ci/mmol) was added to the wells, and isotope incorporation was analysed by liquid scintillation counting. Values are expressed as mean counts per minute ± standard deviation (mean cpm ± SD).
(§10) Serum antibodies to BSA and p69 were measured by particle concentration fluoroimmunoassay, as described (11). […] Bound fluorescence was read by an automated ScreenMachine™ instrument (IDEXX, Portland, Me.). Data are expressed in kilofluorescence units relative to a standard mouse serum analyzed in parallel within each assay plate.
(§11) Young male NOD mice (H2^G7, IE^-/-) received a single immunization with truncated p69 (as encoded by IS4 cDNA) in complete adjuvant, and antibody and T cell proliferative responses were measured 8-10 days later. […]

[6] = system: C57/B6 and SJL mice; experiment: Serum antibodies to BSA and p69 by fluoroimmunoassay, control mice (Example 11); format: in vivo, mouse; details: 50 μg sc in complete Freund's adjuvant
Experimental: as §8, §9, §10, §11

[7] = listed as recombinant truncated p69

| Molecule | proliferative response of patient samples ([1]; absence of IL2) | proliferative response of patient samples ([1]; absence of IL2, listed as recombinant human p69 protein) | proliferative response of patient samples ([1]; presence of 10 U IL2, listed as recombinant human p69 protein) | proliferative response of samples from healthy subjects [2] | T cell proliferative response after immunisation [3] | T cell proliferative response after immunisation [3, 7] | T cell proliferative response after immunisation [4] | T cell proliferative response after immunisation [4, 7] | antibody response after immunisation (anti-p69 or anti-BSA) [5] | antibody response after immunisation (anti-p69 or anti-BSA) [5, 7] | antibody response after immunisation (anti-p69 or anti-BSA) [6] |
| --- | --- | --- | --- | --- | --- | --- | --- | --- | --- | --- | --- |
| rec-p69: recombinant human islet cell antigen p69 expressed in E. coli, SEQ ID No. 2 (protein) MSGHKCSYPWDLQDRYAQDKSVVNKMQQKYWETKQAFIKATGKKEDEHVVASDADLDAKLELFHSIQRTCLDLSKAIVLYQKGICFLSQEENELGKFLRSQGFQDKTRAGKMMQATGKALCFSSQQRLALRNPLCRFHQEVETFRHRAISDTWLTVNRMEQCRTEYRGALLWMKDVSQELDPDLYKQMEKFRKVQTQVRLAKKNFDKLKMDVCQKVDLLGASRCNLLSHMLATYQTTLLHFWEKTSHTMAAIHESFKGYQPYEFTTLKSLQDPMKKLVEKEEKKKINQQESTDAAVQEPSQLISLEEENQRKESSSFKTEDGKSILSALDKGSTHTACSGPIDELLDMKSEEGACLGPVAGTPEPEGADKDDLLLLSEIFNASSLEEGEFSKEWAAVFGDGQVKEPVPTMALGEPDPKAQTGSGFLPSQLLDQNMKDLQASLQEPAKAASDLTAWFSLFADLDPLSNPDAVGKTDKEHELLNA | at best a small proliferative response | little or no proliferative response | full proliferative response | no significant proliferative response | – | – | – | – | – | – | – |
| truncated p69: 100 amino acid truncated p69 encoded by clone IS4 cDNA, contains Tep69 region, SEQ ID No. 41 (protein) MSGHKCSYPWDLQDRYAQDKSVVNKMQQKYWETKQAFIKATGKKEDEHVVASDADLDAKLELFHSIQRTCLDLSKAIVLYQKRICSF | – | – | – | – | Vigorous p69-specific antibody and T cell responses | vigorous B- and T cell responses | not in C57/B6 or SJL strains | essentially no responses | Vigorous p69-specific antibody and T cell responses | vigorous B- and T cell responses | not in C57/B6 or SJL strains |
| ovalbumin (protein, UniProt P01012 2-386, looked up, bona fide non-self control antigen) Ovalbumin: GSIGAASMEFCFDVFKELKVHHANENIFYCPIAIMSALAMVYLGAKDSTRTQINKVVRFDKLPGFGDSIEAQCGTSVNVHSSLRDILNQITKPNDVYSFSLASRLYAEERYPILPEYLQCVKELYRGGLEPINFQTAADQARELINSWVESQTNGIIRNVLQPSSVDSQTAMVLVNAIVFKGLWEKAFKDEDTQAMPFRVTEQESKPVQMMYQIGLFRVASMASEKMKILELPFASGTMSMLVLLPDEVSGLEQLESIINFEKLTEWTSSNVMEERKIKVYLPRMKMEEKYNLTSVLMAMGITDVFSSSANLSGISSAESLKISQAVHAAHAEINEAGREVVGSAEAGVDAASVSEEFRADHPFLFCIKHIATNAVLFFGRCVSP | – | – | – | – | – | – | comparable responses | – | – | – | comparable responses |
